Patent publication US20260274955A1 (JANUX THERAPEUTICS, published 2026)

Legend:
[1] = target: T1, anti-CD28 Fab (SEQ ID NOs: 202, 203); assay: phage ELISA on captured Fab;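 note: ELISA with clonal phage supernatants added to wells preincubated with CD28 antigen or with blocking buffer only, bound phage detected by HRP-conjugated anti-M13 antibody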
T1 construct: biotinylated and captured on neutravidin coated plates in the phage ELISA
Experimental: (§1) Clonal phage were harvested as crude supernatants and screened via standard ELISAs. […] Prior to the addition of clonal phage, wells were incubated with blocking buffer and CD28 antigen or blocking buffer alone. Without washing or aspirating, clonal phage supernatants were then added to the wells and incubated for a short time. Wells were then washed followed by detection of bound phage using a horse radish conjugated anti-M13 antibody.

[2] = target: Anti-CD28 Fab (SEQ ID NOs: 202, 203); assay: phage binding ELISA on captured Fab;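 note: clonal phage supernatants added briefly to wells pre-incubated with CD28 antigen or with blocking buffer only, then washed, bound phage read by ELISA using HRP-coupled anti-M13 antibody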
Target sequence in this assay (VH, as listed by the source, chain 1 of 2): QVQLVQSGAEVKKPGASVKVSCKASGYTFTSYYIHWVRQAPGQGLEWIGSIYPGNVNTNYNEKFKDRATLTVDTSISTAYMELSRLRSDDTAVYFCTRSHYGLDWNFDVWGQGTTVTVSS
Target sequence in this assay (VL, as listed by the source, chain 2 of 2): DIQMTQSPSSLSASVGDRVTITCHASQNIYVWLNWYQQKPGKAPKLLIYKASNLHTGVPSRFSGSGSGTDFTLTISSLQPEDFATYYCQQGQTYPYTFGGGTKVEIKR
Experimental: as §1

[3] = target: T2, Anti-CD28 Fab (SEQ ID NOs: 202, 203); assay: phage ELISA, Fab on plate;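 note: crude clonal phage supernatants added to wells pretreated with blocking buffer with or without CD28 antigen, then bound phage read out via HRP-linked anti-M13 antibody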
T2 construct: biotinylated and captured on neutravidin coated plates in the phage ELISA
T2 sequence (VH, as listed by the source, chain 1 of 2): as the sequence (VH, as listed by the source, chain 1 of 2) above
T2 sequence (VL, as listed by the source, chain 2 of 2): as the sequence (VL, as listed by the source, chain 2 of 2) above

[4] = target: T2, Anti-CD28 Fab (SEQ ID NOs: 202, 203); assay: phage ELISA, Fab on plate, CD28 antigen as competitor

T1 sequence (VH, as listed by the source, chain 1 of 2): as the sequence (VH, as listed by the source, chain 1 of 2) above
T1 sequence (VL, as listed by the source, chain 2 of 2): as the sequence (VL, as listed by the source, chain 2 of 2) above

Binder | Anti-CD28 Fab (SEQ ID NOs: 202, 203) signal [1] | Anti-CD28 Fab (SEQ ID NOs: 202, 203) signal [2] | other results
YCQGHLPQYVEKCL (on phage, pIII fusion) [Phage-534] | 1.57 |  | 
YCDGHLPVYMMKCL (on phage, pIII fusion) [Phage-544] | 1.55 |  | 
YCDGHIAEYRSKCL [Phage-810] |  | 0.87 | 
YCDGHLPEYITKCL (on phage, pIII fusion) [Phage-573] | 1.49 |  | 
YCEGHSLEHIAKCL (on phage, pIII fusion) [Phage-584] | 1.46 |  | 
YCDGHLAIYIGKCL (on phage, pIII fusion) [Phage-580] | 1.47 |  | 
YCEGHLAAYMYKCL [Phage-805] |  | 0.89 | 
YCEGHLDQYMTKCL (on phage, pIII fusion) [Phage-578] | 1.47 |  | 
YCEGHTPVYMPKCL (on phage, pIII fusion) [Phage-585] | 1.46 |  | 
YCEGHLREYMLKCL [Phage-764] |  | 1.01 | 
YCVGHLPQYMQKCL [Phage-599] |  |  | Anti-CD28 Fab (SEQ ID NOs: 202, 203) signal [3]: 1.43; Anti-CD28 Fab signal in the presence of CD28 [4]: 0.06
YCEGHIEQYMRKCL [Phage-762] |  | 1.01 | 
YCAGHNAQYMSKCL (on phage, pIII fusion) [Phage-545] | 1.55 |  | 
YCEGHISEYMGKCL [Phage-808] |  | 0.88 | 
YCDGHLEIYMSKCL (on phage, pIII fusion) [Phage-581] | 1.46 |  | 
YCDGHVGAYMWKCL [Phage-771] |  | 0.99 | 
YCDGHFLTYMTKCL (on phage, pIII fusion) [Phage-538] | 1.56 |  | 
YCAGHSQVYMWKCL [Phage-761] |  | 1.02 | 
YCFGHAPEYLLKCL [Phage-763] |  | 1.01 | 
YCEGHTLEYMWKCL (on phage, pIII fusion) [Phage-541] | 1.55 |  | 
YCAGHDQQYMEKCL (on phage, pIII fusion) [Phage-543] | 1.55 |  | 
YCEGHSSVYLWKCL [Phage-765] |  | 1 | 

Binder | Anti-CD28 Fab (SEQ ID NOs: 202, 203) signal [1] | Anti-CD28 Fab (SEQ ID NOs: 202, 203) signal [2] | other results
YCDGHELQYMAKCL (on phage, pIII fusion) [Phage-515] | 1.6 |  | 
YCEGHRPEYMANCL [Phage-768] |  | 1 | 
YCEGHMPEYLQKCL (on phage, pIII fusion) [Phage-514] | 1.6 |  | 
YCDGHSTLYMQKCL [Phage-806] |  | 0.88 | 
YCDGHSEAYMWKCL (on phage, pIII fusion) [Phage-519] | 1.59 |  | 
YCDGHKPEYMDKCL [Phage-770] |  | 0.99 | 
YCDGHTAQYMWKCL [Phage-812] |  | 0.87 | 
YCEGHLDMYVWKCL (on phage, pIII fusion) [Phage-535] | 1.56 |  | 
YCDGHFTWYMAKCL [Phage-809] |  | 0.87 | 
YCDGHSLEYIEKCL [Phage-601] |  |  | Anti-CD28 Fab (SEQ ID NOs: 202, 203) signal [3]: 1.43; Anti-CD28 Fab signal in the presence of CD28 [4]: 0.06
YCEGHRPEYMQKCV (on phage, pIII fusion) [Phage-574] | 1.48 |  | 
YCDGHTEAYMSKCL [Phage-807] |  | 0.88 | 
YCDGHSLEYMVKCL (on phage, pIII fusion) [Phage-583] | 1.46 |  | 
YCEGHVLEYRGKCD (on phage, pIII fusion) [Phage-576] | 1.48 |  | 
YCAGHSSEYLQKCL [Phage-760] |  | 1.03 | 
YCEGHLPLYMDKCL (on phage, pIII fusion) [Phage-512] | 1.6 |  | 
YCDGHSQEYMAHCL (on phage, pIII fusion) [Phage-536] | 1.56 |  | 
YCDGHVAEYRHKCL (on phage, pIII fusion) [Phage-577] | 1.47 |  | 
YCDGHSPLYMVKCL (on phage, pIII fusion) [Phage-537] | 1.56 |  | 
YCDGHAQEFIWKCL (on phage, pIII fusion) [Phage-518] | 1.6 |  | 
YCDGHNWEYMEKCL [Phage-622] |  |  | Anti-CD28 Fab signal in the presence of CD28 [4]: 0.05
YCDGHTSEYMTKCL (on phage, pIII fusion) [Phage-546] | 1.54 |  | 

Binder | Anti-CD28 Fab (SEQ ID NOs: 202, 203) signal [1] | Anti-CD28 Fab (SEQ ID NOs: 202, 203) signal [2] | other results
YCDGHLEVYMSKCL [Phage-767] |  | 1 | 
YCEGHLSEYIGKCL [Phage-811] |  | 0.87 | 
YCEGHSQEYKAKCF [Phage-802] |  | 0.9 | 
YCEGHSAAYMQKCL (on phage, pIII fusion) [Phage-513] | 1.6 |  | 
YCDGHLPMYMKKCL (on phage, pIII fusion) [Phage-533] | 1.57 |  | 
YCEGHIEPYMQKCL [Phage-769] |  | 0.99 | 
YCAGHTQEYIEKCL (on phage, pIII fusion) [Phage-579] | 1.47 |  | 
YCAGHSEEYMDKCL (on phage, pIII fusion) [Phage-539] | 1.55 |  | 
YCAGHTVENMAKCL (on phage, pIII fusion) [Phage-575] | 1.48 |  | 
YCDGHSQAHMQKCL (on phage, pIII fusion) [Phage-542] | 1.55 |  | 
YCEGHDWMYMEKCL [Phage-801] |  | 0.91 | 
YCDGHLAEYIQKCL [Phage-759] |  | 1.04 | 
YCAGHLDQYIEKCL (on phage, pIII fusion) [Phage-517] | 1.6 |  | 
YCDGHSVEYKLKCM (on phage, pIII fusion) [Phage-509] | 1.61 |  | 
YCEGHSWIYIAKCL [Phage-766] |  | 1 | 
YCDGHLPEYIAKCQ [Phage-600] |  |  | Anti-CD28 Fab (SEQ ID NOs: 202, 203) signal [3]: 1.43; Anti-CD28 Fab signal in the presence of CD28 [4]: 0.07
YCEGHSSAYMAKCL [Phage-804] |  | 0.9 | 
YCDGHVLMYLAKCL [Phage-803] |  | 0.9 | 
YCDGHLLMYMEKCL [Phage-800] |  | 0.91 | 
YCDGHRLEYLEKCL (on phage, pIII fusion) [Phage-516] | 1.6 |  | 
